In US12721801B2, “Compositions and methods relating to stimulation of hyaluronic acid” (Alastin Skincare, Inc., priority 2020, dated 2026):

Columns and labels:
[1] = system: human fibroblast cells; test: HA production assessment, SDS-PAGE of fibroblast supernatants; type: cell-based; conditions: Experiment 2, primary adult human dermal fibroblasts, 72 hours, octapeptide 100 ug/mL, SymDecanox 250 ug/mL, others 500 ug/mL, FIG. 6
Description: In a second experiment, HA production was also assessed with the test compounds below. Briefly, primary adult human dermal fibroblast cells were cultured until near confluent in 6 well plates. The cells were treated with the compounds and concentrations indicated to the right. After 72 hours, 100 μL of media were collected from each treatment condition and was concentrated in a SpeedVac concentrator to a final volume of ~10 uL.
All 10 μL of the supernatants were loaded onto an acrylamide gel (NuPAGE 4-12% Bis-Tris Protein Gel) and run at 200V for 3 hours. The gel was stained to detect the presence of HA. Data is seen in FIG. 6. […] Lane 11 is the negative control, representing the untreated cells. This band represents the cells constitutive level of HA. Treating the cells with all the indicated compounds (lanes 1-10) produced an increased level of high molecular weight HA. […]

[2] = system: human dermal fibroblasts; conditions: cited from earlier work

B1: Lactoferrin: a transferrin; wound healing attributes, increases HA secretion (protein, UniProt P02788 20-710, looked up)
Lactotransferrin: GRRRSVQWCAVSQPEATKCFQWQRNMRKVRGPPVSCIKRDSPIQCIQAIAENRADAVTLDGGFIYEAGLAPYKLRPVAAEVYGTERQPRTHYYAVAVVKKGGSFQLNELQGLKSCHTGLRRTAGWNVPIGTLRPFLNWTGPPEPIEAAVARFFSASCVPGADKGQFPNLCRLCAGTGENKCAFSSQEPYFSYSGAFKCLRDGAGDVAFIRESTVFEDLSDEAERDEYELLCPDNTRKPVDKFKDCHLARVPSHAVVARSVNGKEDAIWNLLRQAQEKFGKDKSPKFQLFGSPSGQKDLLFKDSAIGFSRVPPRIDSGLYLGSGYFTAIQNLRKSEEEVAARRARVVWCAVGEQELRKCNQWSGLSEGSVTCSSASTTEDCIALVLKGEADAMSLDGGYVYTAGKCGLVPVLAENYKSQQSSDPDPNCVDRPVEGYLAVAVVRRSDTSLTWNSVKGKKSCHTAVDRTAGWNIPMGLLFNQTGSCKFDEYFSQSCAPGSDPRSNLCALCIGDEQGENKCVPNSNERYYGYTGAFRCLAENAGDVAFVKDVTVLQNTDGNNNEAWAKDLKLADFALLCLDGKRKPVTEARSCHLAMAPNHAVVSRMDKVERLKQVLLHQQAKFGRNGSDCPDKFCLFQSETKNLLFNDNTECLARLHGKTTYEKYLGPQYVAGITNLKKCSTSPLLEACEFLRK
- Level of high molecular weight HA (band on gel) [1]: secrete high molecular weight HA
- HA secretion ([2]; literature (Saito et al. 2011)): increases HA secretion
- Proliferation of fibroblasts ([2]; literature (Saito et al. 2011; Takayama 2012)): promotes proliferation of fibroblasts
